Data from PMC7503470 (Molecules, 2020).

Legend:
in vivo = conditions: male, NOD-scid IL2Rg^null (NSG), mouse, iv, total radioactivity
Procedure: All imaging and biodistribution studies were performed using male NOD-scid IL2Rg^null (NSG) mice and conducted according to the guidelines established by the Canadian Council on Animal Care and approved by Animal Ethics Committee of the University of British Columbia. For tumor inoculations, mice were anesthetized by inhalation with 2% isoflurane in oxygen and implanted subcutaneously with 5 × 10^6 LNCaP cells below the left shoulder. Imaging and biodistribution studies were performed only after tumors grew to 5−8 mm in diameter over a period of 5−7 weeks.
For ex vivo biodistribution studies, mice were injected with ~1.5−3 MBq of the ^68Ga-labeled tracer. At 1 h p.i., mice were euthanized, blood was drawn from heart, and organs/tissues of interest were collected, rinsed with PBS, blotted dry, weighed, and counted using an automated gamma counter. The uptake in each organ/tissue was normalized to the injected dose and expressed as the percentage of the injected dose per gram of tissue (%ID/g).
Statistical analyses were performed by Student’s t-test using the Microsoft (Redmond, WA, USA) Excel software. The unpaired, two-tailed test was used to compare tissue uptake and tumor-to-background (muscle, blood and kidney) contrast ratios of [^68Ga]Ga-DOTA-AmBz-MVK(HTK01166)-OH and [^68Ga]Ga-DOTA-AmBz-M(O)VK(HTK01166)-OH. The unpaired, one-tailed test was used to compare kidney uptake of [^68Ga]Ga-DOTA-AmBz-MVK(HTK01166)-OH (or [^68Ga]Ga-DOTA-AmBz-M(O)VK(HTK01166)-OH) with that of the previously reported [^68Ga]Ga-HTK01166 [15]. The difference was considered statistically significant when the p value was <0.05.

mice = conditions: mouse, in vivo
Procedure: Radio-metabolites of [^68Ga]Ga-DOTA-AmBz-MVK(Ac)-OH and [^68Ga]Ga-DOTA-AmBz-MVK(HTK01166)-OH in mouse blood and urine samples were analyzed by HPLC. The blood samples were collected at 5 min p.i. due to the fast excretion nature of the small radio-metabolites, whereas the urine samples were collected at 15 min p.i. to allow sufficient time for the accumulation of enough radio-metabolites for analysis.
Male NSG mice were injected with 3–17 MBq of the ^68Ga-labeled peptide. For blood profiling, mice were anesthetized with 2% isoflurane in O2 and euthanized by CO2 inhalation at 5 min p.i. Blood draw was then performed by cardiac puncture and blood was collected in an eppendorf tube with equal volume of CH3CN. Each tube was then centrifuged at RT for 10–15 min and the resulting supernatant was collected and analyzed using the analytical HPLC column to identify and quantify radio-metabolite(s) in blood. For the purpose of urine profiling, urine was collected after euthanizing the mice at 15 min p.i. The urine samples were also collected and analyzed using the analytical HPLC column to identify and quantify radio-metabolite(s) in urine.

[1] = brush border membrane vesicles (BBMVs) extracted from mouse kidneys, control well with phosphoramidon; conditions: 37 °C, up to 1 h
[2] = brush border membrane vesicles (BBMVs) extracted from mouse kidneys; conditions: 37 °C, up to 1 h
[3] = mouse urine samples collected at 15 min p.i.; conditions: Male NSG mice, up to 15 min p.i.
[4] = mouse blood samples collected at 5 min p.i.; conditions: Male NSG mice, up to 5 min p.i.
[5] = brush border membrane vesicles (BBMVs) extracted from mouse kidneys, with phosphoramidon; conditions: 37 °C, up to 1 h

Row | Compound | cleaved bond [3] | tissue uptake at 1 h (in vivo; Adrenal Glands uptake) | tissue uptake at 1 h (in vivo; Bone uptake) | tissue uptake at 1 h (in vivo; Brain uptake) | tissue uptake at 1 h (in vivo; Fat uptake) | tissue uptake at 1 h (in vivo; Heart uptake) | tissue uptake at 1 h (in vivo; Intestines uptake) | tissue uptake at 1 h (in vivo; Kidneys uptake) | tissue uptake at 1 h (in vivo; LNCaP Tumor uptake) | tissue uptake at 1 h (in vivo; Liver uptake) | tissue uptake at 1 h (in vivo; Lungs uptake) | tissue uptake at 1 h (in vivo; Muscle uptake) | tissue uptake at 1 h (in vivo; Pancreas uptake) | tissue uptake at 1 h (in vivo; Spleen uptake) | tissue uptake at 1 h (in vivo; Stomach uptake) | tissue uptake at 1 h (in vivo; Tail uptake) | tissue uptake at 1 h (in vivo; Testes uptake) | tissue to tissue ratio at 1 h (in vivo; Tumor/Blood uptake ratio) | tissue to tissue ratio at 1 h (in vivo; Tumor/Kidney uptake ratio) | tissue to tissue ratio at 1 h (in vivo; Tumor/Muscle uptake ratio) | other results
1 | CC(C)[C@H](NC(=O)[C@H](CC[S+](C)[O-])NC(=O)c1ccc(CNC(=O)CN2CCN(CC(=O)O)CCN(CC(=O)O)CCN(CC(=O)O)CC2)cc1)C(=O)N[C@@H](CCCCNC(=O)CCc1cn(CC(=O)NC[C@H]2CC[C@H](C(=O)N[C@H](C(=O)NCCCC[C@H](NC(=O)N[C@@H](CCC(=O)O)C(=O)O)C(=O)O)C3Cc4ccccc4C3)CC2)nn1)C(=O)O (stereo partly shown) [[^68Ga]Ga-DOTA-AmBz-M(O)VK(HTK01166)-OH, metal not drawn] |  | 4.33 ± 2.07 %ID/g | 0.11 ± 0.05 %ID/g | 0.03 ± 0.01 %ID/g | 0.52 ± 0.13 %ID/g | 0.23 ± 0.05 %ID/g | 0.29 ± 0.1 %ID/g | 89.7 ± 19.3 %ID/g | 4.06 ± 1.27 %ID/g | 0.32 ± 0.06 %ID/g | 0.88 ± 0.1 %ID/g | 0.22 ± 0.05 %ID/g | 0.56 ± 0.24 %ID/g | 11.5 ± 2.7 %ID/g | 0.13 ± 0.05 %ID/g | 1.86 ± 2.44 %ID/g | 0.31 ± 0.07 %ID/g | 6.83 ± 2.81 | 0.04 ± 0.02 | 17.9 ± 7.57 | 
2 | CSCC[C@H](NC(=O)c1ccc(CNC(=O)CN2CCN(CC(=O)O)CCN(CC(=O)O)CCN(CC(=O)O)CC2)cc1)C(=O)N[C@H](C(=O)N[C@@H](CCCCNC(=O)CCc1cn(CC(=O)NC[C@H]2CC[C@H](C(=O)N[C@H](C(=O)NCCCC[C@H](NC(=O)N[C@@H](CCC(=O)O)C(=O)O)C(=O)O)C3Cc4ccccc4C3)CC2)nn1)C(=O)O)C(C)C [[^68Ga]Ga-DOTA-AmBz-MVK(HTK01166)-OH, metal not drawn] |  | 5.59 ± 4.02 %ID/g | 0.16 ± 0.04 %ID/g | 0.02 %ID/g | 0.72 ± 0.33 %ID/g | 0.25 ± 0.12 %ID/g | 0.4 ± 0.1 %ID/g | 104 ± 12.2 %ID/g | 3.98 ± 0.87 %ID/g | 0.58 ± 0.08 %ID/g | 0.96 ± 0.12 %ID/g | 0.21 ± 0.05 %ID/g | 0.6 ± 0.22 %ID/g | 8.87 ± 2.63 %ID/g | 0.11 ± 0.02 %ID/g | 1.03 ± 0.82 %ID/g | 0.36 ± 0.06 %ID/g | 7.24 ± 1.16 | 0.04 ± 0.01 | 19.9 ± 5.41 | unidentified radio-metabolite in urine (mice): no presence
3 | [^68Ga]Ga-DOTA-AmBz-M(O)VK(HTK01166)-OH |  |  |  |  |  |  |  |  |  |  |  |  |  |  |  |  |  |  |  |  | not cleaved [1]: 99.5% remaining intact after 1 h; not cleaved [2]: 94% remaining intact after 1 h

More lines, main results first:

Row | cleaved bond [3] | Compound | tissue uptake at 1 h (in vivo; Adrenal Glands uptake) | tissue uptake at 1 h (in vivo; Bone uptake) | tissue uptake at 1 h (in vivo; Brain uptake) | tissue uptake at 1 h (in vivo; Fat uptake) | tissue uptake at 1 h (in vivo; Heart uptake) | tissue uptake at 1 h (in vivo; Intestines uptake) | tissue uptake at 1 h (in vivo; Kidneys uptake) | tissue uptake at 1 h (in vivo; LNCaP Tumor uptake) | tissue uptake at 1 h (in vivo; Liver uptake) | tissue uptake at 1 h (in vivo; Lungs uptake) | tissue uptake at 1 h (in vivo; Muscle uptake) | tissue uptake at 1 h (in vivo; Pancreas uptake) | tissue uptake at 1 h (in vivo; Spleen uptake) | tissue uptake at 1 h (in vivo; Stomach uptake) | tissue uptake at 1 h (in vivo; Tail uptake) | tissue uptake at 1 h (in vivo; Testes uptake) | tissue to tissue ratio at 1 h (in vivo; Tumor/Blood uptake ratio) | tissue to tissue ratio at 1 h (in vivo; Tumor/Kidney uptake ratio) | tissue to tissue ratio at 1 h (in vivo; Tumor/Muscle uptake ratio) | other results
4 | Met-Val, major, 15 min p.i. | [^68Ga]Ga-DOTA-AmBz-MVK(Ac)-OH |  |  |  |  |  |  |  |  |  |  |  |  |  |  |  |  |  |  |  | cleaved bond [1]: Met-Val, 1 h; cleaved bond [2]: Met-Val, major, 1 h; cleaved bond [4]: Met-Val, minor, 5 min p.i.
5 | Met-Val, 15 min p.i. | [^68Ga]Ga-DOTA-AmBz-MVK(HTK01166)-OH |  |  |  |  |  |  |  |  |  |  |  |  |  |  |  |  |  |  |  | not cleaved [5]: ~95% intact after 1 h; cleaved bond [2]: Met-Val, 1 h; cleaved bond [4]: Met-Val, 5 min p.i.
